Laboratory results as given in patent US6680176B2, “Identification of candidate ligands which modulate antigen presenting cells” (The United States of America, as represented by the …, priority 1999, dated 2004).

Test system: CD8 killer T cells
Experiment: Replacement of T help by soluble factors in CD4 depleted anti-H-Y killer cultures (JAM Test)
Type: cell-based, mouse
Conditions: CD4 depleted primed B6 female spleen cells, male stimulators
From the text: Two weeks to 1 year after in vivo priming, spleens were removed from the responders and depleted for CD4 T cells using the Midi MACs system (Miltenyi Biotec, Germany) with MACS magnetic beads conjugated to the anti-mouse CD4 monoclonal antibody, GK1.5. By FACS analysis with the non-competing anti-CD4 antibody RM4-4 (Pharmingen, San Diego, Calif.), the depleted populations routinely contained less than 0.2% CD4 cells.
Two weeks or later after the last in vivo immunization, 4×10^6 spleen cells were restimulated in 2 ml cultures with 2×10^6 irradiated B6 male spleen cells or 1.5×10^5 of the various populations of dendritic cells, with or with out an exogenous source of mouse IL-2, (10% Rat Con A supernatant, from which the ConA has been removed, Collaborative Biomedical Products, Bedford Mass.). Six days later the cultures were tested for their ability to kill male and female targets using the JAM Test. (55).

B1: IL-12: cytokine IL-12 added to the cultures (protein, UniProt P43431 23-215; P43432 23-335, looked up)
Interleukin-12 subunit alpha: RVIPVSGPARCLSQSRNLLKTTDDMVKTAREKLKHYSCTAEDIDHEDITRDQTSTLKTCLPLELHKNESCLATRETSSTTRGSCLPPQKTSLMMTLCLGSIYEDLKMYQTEFQAINAALQNHNHQQIILDKGMLVAIDELMQSLNHNGETLRQKPPVGEADPYRVKMKLCILLHAFSTRVVTINRVMGYLSSA
Interleukin-12 subunit beta: MWELEKDVYVVEVDWTPDAPGETVNLTCDTPEEDDITWTSDQRHGVIGSGKTLTITVKEFLDAGQYTCHKGGETLSHSHLLLHKKENGIWSTEILKNFKNKTFLKCEAPNYSGRFTCSWLVQRNMDLKFNIKSSSSSPDSRAVTCGMASLSAEKVTLDQRDYEKYSVSCQEDVTCPTAEETLPIELALEARQQNKYENYSTSFFIRDIIKPDPPKNLQMKPLKNSQVEVSWEYPDSWSTPHSYFSLKFFVRIQRKKEKMKETEEGCNQKGAFLVEKTSTEVQCKGGNVCVQAQDRYYNSSCSKWACVPCRVRS
  restoration of killer response in the absence of CD4 helpers by addition to the culture: did not replace the activity of helpers
